The source of these data is patent US20150361183A1 (published 2015).

Where two headings read alike, the source gives them in different places.

Assay [1] concerns the target T1, iC3b (UniProt P01024 23-667; P01024 749-1303; P01024 1321-1663). Briefly: SPR; thioester-coupled (clustered), steady state. On the technique in general: SPR reads the build-up and loss of mass on a sensor chip optically.
Assay [2] concerns the target T2, C3b (UniProt P01024 749-1663; P01024 23-667). Briefly: SPR; amine-coupled C3b (monomeric), steady state.
Another assay deals with C3dg (UniProt P01024 955-1303). Briefly: SPR; thioester-coupled (clustered), steady state.
Sequence of C3dg (P01024 955-1303): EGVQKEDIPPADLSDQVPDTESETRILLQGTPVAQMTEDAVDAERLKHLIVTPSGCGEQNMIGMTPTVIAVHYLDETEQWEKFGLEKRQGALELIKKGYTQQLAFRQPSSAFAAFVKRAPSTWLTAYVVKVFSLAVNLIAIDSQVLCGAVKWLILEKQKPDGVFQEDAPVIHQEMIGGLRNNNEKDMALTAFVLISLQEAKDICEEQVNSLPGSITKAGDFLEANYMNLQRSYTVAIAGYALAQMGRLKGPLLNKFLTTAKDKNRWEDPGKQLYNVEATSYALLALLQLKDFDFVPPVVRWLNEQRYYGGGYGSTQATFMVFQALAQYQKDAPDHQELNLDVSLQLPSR
For assay [3], the target named is T2, C3b. Briefly: SPR; thioester-coupled C3b (clustered), steady state.
Assay [4] addresses T1, iC3b. Briefly: SPR; thioester-coupled (clustered), steady state. The source holds these as a separate data set.
Assay [5] deals with T2, C3b. Briefly: SPR; amine-coupled C3b (monomeric), steady state. This is another data set of the same source.

T2 sequence (P01024 749-1663, chain 1 of 2): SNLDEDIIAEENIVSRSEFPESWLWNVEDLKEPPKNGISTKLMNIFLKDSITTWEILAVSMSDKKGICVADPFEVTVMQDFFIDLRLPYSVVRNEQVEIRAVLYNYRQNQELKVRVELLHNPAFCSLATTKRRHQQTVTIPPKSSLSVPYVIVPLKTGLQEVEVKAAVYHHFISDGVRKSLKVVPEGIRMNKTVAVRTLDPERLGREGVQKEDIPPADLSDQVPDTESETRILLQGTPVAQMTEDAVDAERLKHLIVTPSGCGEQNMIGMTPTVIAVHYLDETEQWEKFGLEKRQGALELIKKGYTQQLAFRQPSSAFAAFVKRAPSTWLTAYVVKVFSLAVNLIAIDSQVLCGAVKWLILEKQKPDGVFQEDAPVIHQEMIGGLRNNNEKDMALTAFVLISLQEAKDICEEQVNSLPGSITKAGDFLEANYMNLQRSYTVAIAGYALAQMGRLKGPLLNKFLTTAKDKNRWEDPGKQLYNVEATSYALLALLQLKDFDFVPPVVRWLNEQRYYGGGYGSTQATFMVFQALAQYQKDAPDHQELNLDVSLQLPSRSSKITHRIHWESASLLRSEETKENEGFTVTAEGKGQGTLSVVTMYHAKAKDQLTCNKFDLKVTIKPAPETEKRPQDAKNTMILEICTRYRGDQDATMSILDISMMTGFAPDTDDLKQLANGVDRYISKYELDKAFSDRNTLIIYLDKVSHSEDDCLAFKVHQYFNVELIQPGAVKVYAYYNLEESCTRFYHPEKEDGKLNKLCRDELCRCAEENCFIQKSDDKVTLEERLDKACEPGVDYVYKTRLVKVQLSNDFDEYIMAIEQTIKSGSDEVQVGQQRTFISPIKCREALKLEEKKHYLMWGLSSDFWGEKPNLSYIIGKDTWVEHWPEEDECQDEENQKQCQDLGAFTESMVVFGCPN
T2 sequence (P01024 23-667, chain 2 of 2): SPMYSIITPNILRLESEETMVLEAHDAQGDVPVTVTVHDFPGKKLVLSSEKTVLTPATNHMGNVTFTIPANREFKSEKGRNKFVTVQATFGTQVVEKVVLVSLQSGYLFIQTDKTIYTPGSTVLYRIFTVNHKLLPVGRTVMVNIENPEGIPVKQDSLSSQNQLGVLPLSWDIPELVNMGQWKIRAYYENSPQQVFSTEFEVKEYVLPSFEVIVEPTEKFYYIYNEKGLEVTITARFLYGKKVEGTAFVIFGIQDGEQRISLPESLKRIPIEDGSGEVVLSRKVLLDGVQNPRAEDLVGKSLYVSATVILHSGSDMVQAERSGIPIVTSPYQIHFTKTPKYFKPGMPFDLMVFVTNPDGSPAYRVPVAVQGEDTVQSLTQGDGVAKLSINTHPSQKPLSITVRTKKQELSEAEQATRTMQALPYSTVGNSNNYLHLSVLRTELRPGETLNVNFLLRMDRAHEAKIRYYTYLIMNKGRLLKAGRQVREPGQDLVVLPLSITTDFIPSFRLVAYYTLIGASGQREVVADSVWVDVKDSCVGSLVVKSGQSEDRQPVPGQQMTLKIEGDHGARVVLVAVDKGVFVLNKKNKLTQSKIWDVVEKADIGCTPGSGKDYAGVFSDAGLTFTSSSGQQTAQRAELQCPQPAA
T1 sequence (P01024 23-667, chain 1 of 3): as the sequence (P01024 23-667, chain 2 of 2) above
T1 sequence (P01024 749-1303, chain 2 of 3): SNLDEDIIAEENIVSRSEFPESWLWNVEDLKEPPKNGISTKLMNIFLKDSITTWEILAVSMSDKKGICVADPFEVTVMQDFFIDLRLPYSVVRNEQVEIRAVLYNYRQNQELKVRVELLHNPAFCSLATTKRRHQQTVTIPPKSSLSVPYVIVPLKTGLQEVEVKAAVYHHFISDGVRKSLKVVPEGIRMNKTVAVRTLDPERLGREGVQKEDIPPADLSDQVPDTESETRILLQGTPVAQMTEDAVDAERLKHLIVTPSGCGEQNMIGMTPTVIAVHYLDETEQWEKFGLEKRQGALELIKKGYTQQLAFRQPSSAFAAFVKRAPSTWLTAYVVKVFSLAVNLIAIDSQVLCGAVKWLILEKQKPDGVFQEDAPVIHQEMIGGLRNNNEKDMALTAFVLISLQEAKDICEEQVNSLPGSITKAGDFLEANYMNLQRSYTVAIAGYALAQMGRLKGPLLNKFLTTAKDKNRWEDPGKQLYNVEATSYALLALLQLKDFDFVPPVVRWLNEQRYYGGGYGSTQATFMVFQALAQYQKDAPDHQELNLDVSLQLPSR
T1 sequence (P01024 1321-1663, chain 3 of 3): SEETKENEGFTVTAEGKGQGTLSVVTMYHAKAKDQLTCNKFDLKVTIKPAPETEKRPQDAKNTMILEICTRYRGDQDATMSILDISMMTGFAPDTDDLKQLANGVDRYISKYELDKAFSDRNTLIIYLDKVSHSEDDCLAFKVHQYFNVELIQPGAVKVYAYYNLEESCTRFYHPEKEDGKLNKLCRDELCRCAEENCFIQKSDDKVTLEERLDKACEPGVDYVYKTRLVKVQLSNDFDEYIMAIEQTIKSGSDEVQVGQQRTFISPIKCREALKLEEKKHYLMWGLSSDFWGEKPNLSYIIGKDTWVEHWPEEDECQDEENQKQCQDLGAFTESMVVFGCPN

B1: CFHR5 (complement factor H-related protein 5), wild type (other)
chain: EGTLCDFPKIHHGFLYDEEDYNPFSQVPTGEVFYYSCEYNFVSPSKSFWTRITCTEEGWSPTPKCLRMCSFPFVKNGHSESSGLIHLEGDTVQIICNTGYSLQNNEKNISCVERGWSTPPICSFTKGECHVPILEANVDAQPKKESYKVGDVLKFSCRKNLIRVGSDSVQCYQFGWSPNFPTCKGQVRSCGPPPQLSNGEVKEIRKEEYGHNEVVEYDCNPNFIINGPKKIQCVDGEWTTLPTCVEQVKTCGYIPELEYGYVQPSVPPYQHGVSVEVNCRNEYAMIGNNMITCINGIWTELPMCVATHQLKRCKIAGVNIKTLLKLSGKEFNHNSRIRYRCSDIFRYRHSVCINGKWNPEVDCTEKREQFCPPPPQIPNAQNMTTTVNYQDGEKVAVLCKENYLLPEAKEIVCKDGRWQSLPRCVESTAYCGPPPSINNGDTTSFPLSVYPPGSTVTYRCQSFYKLQGSVTVTCRNKQWSEPPRCLDPCVVSEENMNKNNIQLKWRNDGKLYAKTGDAVEFQCKFPHKAMISSPPFRAICQEGKFEYPICE
Turning to B1, the Kd – broadly, the constant that tells how readily two partners part at equilibrium – was found to be 270 nM with iC3b [1], 3800 nM in the assay with C3b [2], 270 nM with C3dg and 310 nM with C3b [3].

B2: Complement factor H (CFH) (other)
chain: EDCNELPPRRNTEILTGSWSDQTYPEGTQAIYKCRPGYRSLGNVIMVCRKGEWVALNPLRKCQKRPCGHPGDTPFGTFTLTGGNVFEYGVKAVYTCNEGYQLLGEINYRECDTDGWTNDIPICEVVKCLPVTAPENGKIVSSAMEPDREYHFGQAVRFVCNSGYKIEGDEEMHCSDDGFWSKEKPKCVEISCKSPDVINGSPISQKIIYKENERFQYKCNMGYEYSERGDAVCTESGWRPLPSCEEKSCDNPYIPNGDYSPLRIKHRTGDEITYQCRNGFYPATRGNTAKCTSTGWIPAPRCTLKPCDYPDIKHGGLYHENMRRPYFPVAVGKYYSYYCDEHFETPSGSYWDHIHCTQDGWSPAVPCLRKCYFPYLENGYNQNYGRKFVQGKSIDVACHPGYALPKAQTTVTCMENGWSPTPRCIRVKTCSKSSIDIENGFISESQYTYALKEKAKYQCKLGYVTADGETSGSITCGKDGWSAQPTCIKSCDIPVFMNARTKNDFTWFKLNDTLDYECHDGYESNTGSTTGSIVCGYNGWSDLPICYERECELPKIDVHLVPDRKKDQYKVGEVLKFSCKPGFTIVGPNSVQCYHFGLSPDLPICKEQVQSCGPPPELLNGNVKEKTKEEYGHSEVVEYYCNPRFLMKGPNKIQCVDGEWTTLPVCIVEESTCGDIPELEHGWAQLSSPPYYYGDSVEFNCSESFTMIGHRSITCIHGVWTQLPQCVAIDKLKKCKSSNLIILEEHLKNKKEFDHNSNIRYRCRGKEGWIHTVCINGRWDPEVNCSMAQIQLCPPPPQIPNSHNMTTTLNYRDGEKVSVLCQENYLIQEGEEITCKDGRWQSIPLCVEKIPCSQPPQIEHGTINSSRSSQESYAHGTKLSYTCEGGFRISEENETTCYMGKWSSPPQCEGLPCKSPPEISHGVVAHMSDSYQYGEEVTYKCFEGFGIDGPAIAKCLGEKWSHPPSCIKTDCLSLPSFENAIPMGEKKDVYKAGEQVTYTCATYYKMDGASNVTCINSRWTGRPTCRDTSCVNPPTVQNAYIVSRQMSKYPSGERVRYQCRSPYEMFGDEEVMCLNGNWTEPPQCKDSTGKCGPPPPIDNGDITSFPLSVYAPASSVEYQCQNLYQLEGNKRITCRNGQWSEPPKCLHPCVISREIMENYNIALRWTAKQKLYSRTGESVEFVCKRGYRLSSRSHTLRTTCWDGKLEYPTCAKR
For B2, the values for the Kd with iC3b [4] and with C3b [5] were 2600 nM and 1700 nM, respectively.
